{
  "source": "paper PMC12500691",
  "target": "Spike",
  "experiment": "SPR",
  "data": [
    {"substance": "human angiotensin converting enzyme 2 (from UniProt Q9BYF1-1 20-611) (receptor)", "values": [
      {"measurement": "Kd", "value": 370, "unit": "nM"}
    ]}
  ]
}
